Assay in all cases: two-hybrid; LexA-Cdc1 bait (pBTM116 or pBTM116BN) with Gal4 activation domain-Cdc27 prey (pGAD2F-Cdc27) in S. cerevisiae CTY10-5d; ONPG liquid culture beta-galactosidase assay, mean of triplicates, as percent of wild-type Cdc1
Holding throughout (details): partners not purified

The target of one experiment is T1, Cdc1-J21 (Schizosaccharomyces pombe, UniProt P87324 1-462, Leu-GlyValProGlnLeu-Asp).
T1 construct: Cdc1, S. pombe, with a pentapeptide inserted after residue 275; source: yeast two-hybrid fusion, in S. cerevisiae CTY10-5d
T1 sequence (looked up): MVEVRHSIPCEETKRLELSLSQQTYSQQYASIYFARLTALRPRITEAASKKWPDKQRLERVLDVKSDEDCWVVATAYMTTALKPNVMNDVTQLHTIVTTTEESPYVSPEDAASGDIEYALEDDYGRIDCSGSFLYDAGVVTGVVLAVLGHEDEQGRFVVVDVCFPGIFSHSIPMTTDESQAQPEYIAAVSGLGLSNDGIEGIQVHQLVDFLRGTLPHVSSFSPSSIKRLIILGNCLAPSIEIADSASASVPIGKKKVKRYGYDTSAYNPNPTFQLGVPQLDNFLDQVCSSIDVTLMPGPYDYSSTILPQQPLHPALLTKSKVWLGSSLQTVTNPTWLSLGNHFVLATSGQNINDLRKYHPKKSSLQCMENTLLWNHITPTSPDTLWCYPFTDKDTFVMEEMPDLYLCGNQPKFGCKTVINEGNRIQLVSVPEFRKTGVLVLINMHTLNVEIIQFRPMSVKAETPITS

A further experiment concerns the target T2, Cdc1-E2 (Schizosaccharomyces pombe, UniProt P87324 1-26).
T2 construct: Cdc1, S. pombe, truncated after amino acid 26 by a 16 nt insertion; residues coded by the 16 nt insertion before the stop codon (printed as GlyValProLysTer); source: yeast two-hybrid fusion, in S. cerevisiae CTY10-5d
T2 chain: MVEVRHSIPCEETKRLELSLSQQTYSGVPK

For the next experiment, the target named is T3, Cdc1-A4 (Schizosaccharomyces pombe, UniProt P87324 1-462, Pro303Ala).
T3 construct: Cdc1, S. pombe, point mutant; source: yeast two-hybrid fusion, in S. cerevisiae CTY10-5d
T3 sequence (looked up): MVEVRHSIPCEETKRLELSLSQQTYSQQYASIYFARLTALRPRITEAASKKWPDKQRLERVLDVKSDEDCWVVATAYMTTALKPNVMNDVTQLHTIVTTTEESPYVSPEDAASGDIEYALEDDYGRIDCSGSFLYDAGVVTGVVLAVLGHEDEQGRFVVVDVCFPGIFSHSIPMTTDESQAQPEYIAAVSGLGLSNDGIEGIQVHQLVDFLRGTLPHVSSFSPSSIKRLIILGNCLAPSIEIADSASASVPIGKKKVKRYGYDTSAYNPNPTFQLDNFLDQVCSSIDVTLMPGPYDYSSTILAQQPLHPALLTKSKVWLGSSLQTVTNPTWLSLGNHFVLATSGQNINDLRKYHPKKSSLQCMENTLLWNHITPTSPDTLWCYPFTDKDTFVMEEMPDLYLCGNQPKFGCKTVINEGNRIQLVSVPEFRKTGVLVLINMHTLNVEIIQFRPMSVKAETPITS

The next experiment has as its target T4, Cdc1-J1 (Schizosaccharomyces pombe, UniProt P87324 1-462, Thr-GlyValProLeuThr-Gly).
T4 construct: Cdc1, S. pombe, with a pentapeptide inserted after residue 141; source: yeast two-hybrid fusion, in S. cerevisiae CTY10-5d
T4 sequence (looked up): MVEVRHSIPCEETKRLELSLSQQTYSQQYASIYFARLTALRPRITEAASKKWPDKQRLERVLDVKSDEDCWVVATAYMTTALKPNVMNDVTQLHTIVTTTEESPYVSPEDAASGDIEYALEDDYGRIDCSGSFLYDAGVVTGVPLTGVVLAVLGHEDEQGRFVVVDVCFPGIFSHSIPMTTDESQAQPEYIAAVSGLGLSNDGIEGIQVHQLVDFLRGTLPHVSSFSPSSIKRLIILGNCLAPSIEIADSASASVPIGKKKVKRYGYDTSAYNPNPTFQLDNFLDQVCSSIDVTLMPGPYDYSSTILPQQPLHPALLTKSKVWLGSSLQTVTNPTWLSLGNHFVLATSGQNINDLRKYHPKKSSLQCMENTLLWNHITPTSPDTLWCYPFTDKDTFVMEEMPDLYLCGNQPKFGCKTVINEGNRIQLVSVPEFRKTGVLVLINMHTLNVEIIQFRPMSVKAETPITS

A further experiment addresses T5, Cdc1-A10 (Schizosaccharomyces pombe, UniProt P87324 1-462, Asn328Ala | Pro329Ala).
T5 construct: Cdc1, S. pombe, double point mutant (A5 and A6 combined); source: yeast two-hybrid fusion, in S. cerevisiae CTY10-5d
T5 sequence (looked up): T3 sequence (looked up) with A303P, N328A, P329A

Numbering of substitutions follows the chain as printed.

B1: Cdc27 (fission yeast DNA polymerase delta C-subunit) (natural protein, Schizosaccharomyces pombe, UniProt P30261 1-372, looked up)
chain: MEEWRNFLDIKVINESSLVTVDNLSLQLDISSEKAQEYLNMFYQGNDFLYPIYLIHGQPIDDEINLEIDEESQPISNFPVLQYILCDKSSLQEKQSRLKSGYKTVIFALSSAPLSDFDELLPAVYEIREKDVLYKKEDADKYGFIFNENSVPRVLKKAPSTHSPQLSVPSKTSTIDKTDTRSTEKTKGKDIFSNARNQKGNSSRKNKKAPLENHKEKEPLLPKEEKLSEQAKRERDDLKNIMQLEDESVSTTSVHDSEDDNLDSNNFQLEIGTEAKSAAPDEPQEIIKSVSGGKRRGKRKVKKYATTKDEEGFLVTKEEEVWESFSEDENISTGTSNVVRNKPTTVNIATKKKNTAQSKPQQKSIMSFFGKK
notes: DNA polymerase delta C-subunit Cdc27, S. pombe; prey plasmid pGAD2F-Cdc27; also called pGAD2F-Cdc27; source: yeast two-hybrid fusion, in S. cerevisiae CTY10-5d
Turning to B1, the “two-hybrid beta-galactosidase activity, % of wild-type Cdc1” value in the experiment with Cdc1-J21 is < 1%; with Cdc1-E2, < 1%; in the experiment with Cdc1-A4 it was 31%; with Cdc1-J1, < 1%; with Cdc1-A10, 72%.

These data come from paper PMC2734569, “Functional mapping of the fission yeast DNA polymerase δ B-subunit Cdc1 by site-directed and random pentapeptide insertion mutagenesis” (BMC Molecular Biology, 2009).
